± gives the uncertainty stated by the source.
B1: E3 ubiquitin-protein ligase NEDD4, residues 836 to 881; numbered along this chain, P46934 (parent)
chain: EIEQGFLPKGWEVRHAPNGRPFFIDHNTKTTTWEDPRLKIPAHLRG

Variants of: B1
Assay: abundance fitness (aPCA) (normalised: wild type 0, dead -1); higher = more abundant; growth selection in yeast, the domain comes from the species named
Settings: Homo sapiens

| Variant | abundance fitness |
| --- | --- |
| P36A | -0.629 ± 0.06 |
| P36V | -0.96 ± 0.1 |
| P36Y | -0.713 ± 0.12 |
| P36M | -1.06 ± 0.16 |
| P36Q | -1.03 ± 0.31 |
| P36D | -0.893 ± 0.22 |
| P36K | -0.846 ± 0.079 |
| P36F | -1.04 ± 0.34 |
| P36C | -0.958 ± 0.15 |
| P36S | -1.09 ± 0.16 |
| P36E | -0.283 ± 0.11 |
| P36N | -0.818 ± 0.21 |
| P36H | -0.71 ± 0.18 |
| P36W | -0.954 ± 0.13 |
| P36G | -0.927 ± 0.086 |
| P36L | -1.01 ± 0.064 |
| K39F | -0.421 ± 0.066 |
| K39H | -0.355 ± 0.075 |
| K39W | -0.298 ± 0.038 |
| K39C | 0.32 ± 0.072 |
| K39A | -0.085 ± 0.046 |
| K39M | -0.101 ± 0.065 |
| K39Y | -0.319 ± 0.093 |

| Variant | abundance fitness |
| --- | --- |
| K39T | -0.023 ± 0.064 |
| K39D | -0.241 ± 0.086 |
| K39E | 0.062 ± 0.058 |
| K39S | -0.098 ± 0.037 |
| K39I | -0.297 ± 0.038 |
| K39Q | -0.372 ± 0.092 |
| K39G | -0.065 ± 0.039 |
| K39V | -0.201 ± 0.045 |
| K39R | 0.003 ± 0.051 |
| K39L | -0.144 ± 0.046 |
| R45E | 0.153 ± 0.069 |
| R45N | 0.017 ± 0.037 |
| R45G | 0.005 ± 0.041 |
| R45D | 0.104 ± 0.037 |
| R45K | -0.016 ± 0.059 |
| R45C | 0.019 ± 0.067 |
| R45W | -0.202 ± 0.078 |
| R45I | -0.454 ± 0.1 |
| R45S | -0.131 ± 0.054 |
| R45T | -0.074 ± 0.041 |
| R45L | -0.182 ± 0.045 |
| R45A | -0.005 ± 0.061 |
| R45H | 0.104 ± 0.076 |

| Variant | abundance fitness |
| --- | --- |
| R45V | -0.055 ± 0.049 |
| R45P | 0.006 ± 0.058 |
| R45F | -0.174 ± 0.079 |
| R45Y | -0.072 ± 0.041 |
| R45Q | -0.11 ± 0.091 |
| G46D | -0.088 ± 0.16 |
| G46A | -0.249 ± 0.26 |
| G46S | -0.002 ± 0.094 |
| L38R | -0.012 ± 0.033 |
| L38P | -0.072 ± 0.043 |
| L38G | -0.018 ± 0.034 |
| L38A | -0.103 ± 0.046 |
| L38I | -0.043 ± 0.062 |
| L38T | 0.033 ± 0.07 |
| L38E | -0.093 ± 0.068 |
| L38K | -0.105 ± 0.085 |
| L38N | -0.166 ± 0.084 |
| L38V | -0.051 ± 0.041 |
| L38Q | -0.091 ± 0.063 |
| L38W | -0.105 ± 0.062 |
| L38S | -0.019 ± 0.053 |
| L38D | 0.036 ± 0.056 |
| L38H | -0.292 ± 0.086 |

| Variant | abundance fitness |
| --- | --- |
| L38Y | -0.435 ± 0.11 |
| L38M | -0.066 ± 0.066 |
| L44Y | -0.172 ± 0.039 |
| L44S | -0.001 ± 0.056 |
| L44C | 0.004 ± 0.041 |
| L44R | -0.221 ± 0.042 |
| L44H | 0.116 ± 0.069 |
| L44D | 0.116 ± 0.065 |
| L44Q | 0.033 ± 0.063 |
| L44I | -0.053 ± 0.045 |
| L44M | -0.002 ± 0.081 |
| L44P | 0.119 ± 0.068 |
| L44G | 0.056 ± 0.032 |
| L44A | 0.08 ± 0.047 |
| L44N | -0.34 ± 0.089 |
| L44E | -0.07 ± 0.049 |
| L44K | -0.154 ± 0.072 |
| L44W | -0.188 ± 0.051 |
| L44F | -0.423 ± 0.069 |
| L44T | -0.027 ± 0.033 |
| D35S | -0.691 ± 0.067 |
| D35P | -0.582 ± 0.12 |
| D35A | -0.216 ± 0.081 |

| Variant | abundance fitness |
| --- | --- |
| D35L | -0.623 ± 0.055 |
| D35W | -0.849 ± 0.043 |
| D35I | -0.895 ± 0.14 |
| D35Y | -0.906 ± 0.24 |
| D35N | -0.979 ± 0.18 |
| D35M | -0.734 ± 0.16 |
| D35T | -0.84 ± 0.15 |
| D35V | -0.762 ± 0.085 |
| D35H | -0.418 ± 0.14 |
| D35G | -0.593 ± 0.048 |
| D35K | -0.814 ± 0.078 |
| D35R | -0.554 ± 0.044 |
| D35E | -0.795 ± 0.11 |
| R37F | -0.672 ± 0.14 |
| R37W | -0.812 ± 0.11 |
| R37Y | -0.784 ± 0.076 |
| R37P | -0.867 ± 0.12 |
| R37A | -0.567 ± 0.056 |
| R37H | -0.268 ± 0.072 |
| R37I | -0.75 ± 0.1 |
| R37E | -0.752 ± 0.17 |
| R37L | -0.399 ± 0.076 |
| R37V | -0.597 ± 0.044 |

Reference: the Human Domainome abundance scans (Beltran et al. 2025)
